Measured values: US5580958, “Polypeptides encoding transcriptional activators and uses thereof” (La Jolla Cancer Research Foundation)

Biological target: PU.1 beta-galactosidase fusion (lambda 25.1, Ly25.1) (Mus musculus, UniProt P17433 P17433:1-272)
Assay: Southwestern blot with multimerized 33-mer; methylation interference protects three G in GAGGAA; lower affinity than PU-1
Details: tags: beta-galactosidase fusion, partially purified on anti-beta-gal Sepharose; label: 32P
Description: Production of beta-Galactosidase Fusion Protein and Western and Southwestern Analyses Lysogens were prepared from the lambda 25.1 and lambda 24.1 clones as described (Sturm et al., 1988) and the fusion proteins partially purified using anti-beta-galactosidase antibody bound to Sepharose (5 Prime - 3 Prime, Inc., Paoli, Pa.), as described by the manufacturer. Western and Southwestern analyses were carried out as described (Staudt et al., 1988).
Bacterial extracts prepared from lambda-gt11 and lambda 25.1 lysogens were fractionated on a 7.5% SDS-polyacrylamide gel, transferred to nitrocellulose and probed with labeled multimerized 33-mer. Only the lane with the lambda 25.1 extract contained a protein able to bind the probe. […] The positive filter was subsequently treated with rabbit antiserum to beta-galactosidase and mouse anti-rabbit immunoglobulin horseradish peroxidase conjugate. […] The appearance of several bands of lower molecular size are probably the result of degradation of the 150 kDa species. […] Some breakdown of the beta-galactosidase occurred in this sample resulting in a band at about 69 kDa.

B1: MHC class II I-A beta 33-mer (tetramer probe) (dsDNA)
DNA 1: GATCCGTCCCAAGTGAGGAACCAATCAGCATTG
DNA 2: CAATGCTGATTGGTTCCTCACTTGGGACGGATC
binding result: binds
